Assay: soluble on expression in E. coli; label from the status in PepcDB or PDB records

| Sequence | soluble on expression in E. coli |
| --- | --- |
| GAMATSESPDAYTESFGAHTIVKPAGPPRVGQPSWNPQRASSMPVNRYRPFAEEVEPIRLRNRTWPDRVIDRAPLWCAVDLRDGNQALIDPMSPARKRRMFDLLVRMGYKEIEVGFPSASQTDFDFVREIIEQGAIPDDVTIQVLTQCRPELIERTFQACSGAPRAIVHFYNSTSILQRRVVFRANRAEVQAIATDGARKCVEQAAKYPGTQWRFEYSPESYTGTELEYAKQVCDAVGEVIAPTPERPIIFNLPATVEMTTPNVYADSIEWMSRNLANRESVILSLHPHNDRGTAVAAAELGFAAGADRIEGCLFGNGERTGNVCLVTLGLNLFSRGVDPQIDFSNIDEIRRTVEYCNQLPVHERHPYGGDLVYTAFSGSHQDAINKGLDAMKLDADAADCDVDDMLWQVPYLPIDPRDVGRTYEAVIRVNSQSGKGGVAYIMKTDHGLSLPRRLQIEFSQVIQKIAEGTAGEGGEVSPKEMWDAFAEEYLAPVRPLERIRQHVDAADDDGGTTSITATVKINGVETEISGSGNGPLAAFVHALADVGFDVAVLDYYEHAMSAGDDAQAAAYVEASVTIASPAQPGEAGRHASDPVTIASPAQPGEAGRHASDPVTSKTVWGVGIAPSITTASLRAVVSAVNRAAR | soluble |
| GAMEPKASCPAAAPLMERKFHVLVGVTGSVAALKLPLLVSKLLDIPGLEVAVVTTERAKHFYSPQDIPVTLYSDADEWEMWKSRSDPVLHIDLRRWADLLLVAPLDANTLGKVASGICDNLLTCVMRAWDRSKPLLFCPAMNTAMWEHPITAQQVDQLKAFGYVEIPCVAKKLVCGDEGLGAMAEVGTIVDKVKEVLFQHSGFQQS | soluble |
| GAMGQTTFTELMQQLFLKLGLNHQVNENDVYTFEVDGHIQVLIACYHQQWVQLFSELGADLPTNDNLFGEHWPAHVQGRLDGKSILWSQQSLVGLDIDEMQAWLERFIDDIEQRKEPQNTKFQPNSTSPILFI | soluble |
| GAMGSMERASLIQKAKLAEQAERYEDMAAFMKGAVEKGEELSCEERNLLSVAYKNVVGGQRAAWRVLSSIEQKSNEEGSEEKGPEVREYREKVETELQGVCDTVLGLLDSHLIKEAGDAESRVFYLKMKGDYYRYLAEVATGDDKKRIIDSARSAYQEAMDISKKEMPPTNPIRLGLALNFSVFHYEIANSPEEAISLAKTTFDEAMADLHTLSEDSYKDSTLIMQLLRDNLTLWTADNAGEEGGEAPQEPQS | soluble |
| GAMGSSRKSKAELQSEERKRIDELIESGKEEGMKIDLIDGKGRGVIATKQFSRGDFVVEYHGDLIEITDAKKREALYAQDPSTGCYMYYFQYLSKTYCVDATRETNRLGRLINHSKCGNCQTKLHDIDGVPHLILIASRDIAAGEELLYDYGDRSKASIEAHPWLKH | soluble |
| GAMGSWNPKYDTRTLWTTPDTSPNCTIAQDKDSKLTLVLTKCGSQILANVSLIVVAGKYHIINNKTNPKIKSFTIKLLFNKNGVLLDNSNLGKAYWNFRSGNSNVSTAYEKAIGFMPNLVAYPKPSNSKKYARDIVYGTIYLGGKPDQPAVIKTTFNQETGCEYSITFNFSWSKTYENVEFETTSFTFSYIAQE | soluble |
| GAPRSHEVPLLVTLEELYLGKRKKIKVTRKRFIEHKVRNEENIVEVEIKPGWKDGTKLTYSGEGDQESPGTSPGDLVLIIQTKTHPRFTRDDCHLIMKVTIPLVRALTGFTCPVTTLDNRNLQIPIKEIVNPKTRKIVPNEGMPIKNQPGQKGDLILEFDICFPKSLTPEQKKLIKEALD | soluble |
| GAQLLGVHPKGESQRASRGGGQATKMSSAVGPRGPRPPTVPPPMQELPDLSHLTEEERNIIMAVMDRQKEEEEKEEAMLKCVVRDMAKPAACKTPRNAENQPHQPSPRLHQQFESYKEQVRKIGEEARRYQGEHKDDAPTCGICHKTKFADGCGHLCSYCRTKFCARCGGRVSLRSNNEDKVVMWVCNLCRKQQEILTKSGAWFFGSGPQQTSQDGTLSDTATGAGSEVPREKKARLQERSRSQTPLSTAAASSQDAAPPSAPPDRSKGAEPSQQALGPEQKQASSRSRSEPPRERKKTPGLSEQNGKGALKSERKRVPKTSAQPVEGAVEERERKERRESRRLEKGRSQDYPDTPEKRDEGKAADEEKQRKEEDYQTRYRSDPNLARYPVKPPPEEQQMRMHARVSRARHERRHSDVALPRTEAGAALPEGKAGKRAPAAARASPPDSPRAYSAERTAETRAPGAKQLTNHSPPAPRHGPVPAEAPELKAQEPLRKQSRLDPSSAVLMLRNDSLSSDQSESVRPSPPKPHRSKRGGKKRQMSVSSSEEEGVSTPEYTSCEDVELESESVSEKGDLDYYWLDPATWHSRETSPISSHPVTWQPSKEGDRLIGRVILNKRTTMPKDSGALLGLKVVGGKMTDLGRLGAFITKVKKGSLADVVGHLRAGDEVLEWNGKPLPGATNEEVYNIILESKSEPQVEIIVSRPIGDIPRIPESSHPPLESSSSSFESQKMERPSISVISPTSPGALKDAPQVLPGQLSVKLWYDKVGHQLIVNVLQATDLPARVDGRPRNPYVKMYFLPDRSDKSKRRTKTVKKILEPKWNQTFVYSHVHRRDFRERMLEITVWDQPRVQEEESEFLGEILIELETALLDDEPHWYKLQTHDESSLPLPQPSPFMPRRHIHGESSSKKLQRSQRISDSDISDYEVDDGIGVVPPVGYRSSARESKSTTLTVPEQQRTTHHRSRSVSPHRGNDQGKPRSRLPNVPLQRSLDEIHPTRRSRSPTRHHDASRSPVDHRTRDVDSQYLSEQDSELLMLPRAKRGRSAECLHTTR | soluble |
| GAQVSSQKVGAHENSNRAYGGSTINYTTINYYKDSASNAASKQDYSQDPSKFTEPLKDVLIKTAPALN | soluble |
| GARNSVLRGKKADELERIRLRPGGKKKYRLKHIVWAANKLDRFGLAESLLESKEGCQKILTVLDPMVPTGSENLKSLFNTVCVIWCIHAEEKVKDTEGAKQIVRRHLVAETGTAEKMPSTSRPTAPSSEKGGNY | soluble |
| GASMDAIKKKMQMLKLDKENALDRAEQAEADKDFYFGKLRNIELICQENEGENDPVLQRIVDILYATDEGFVIPD | soluble |
| GCGVEEKTEVQLLKEMPKPKAMTIDPSLSQKEATEMVHAAQRFYAFWDTGKEELIPQTVTENFFDHTLPKGRPQGTEGLKFAAQNFRKIVPNIHCEIEDLLVVGDKVTARLSFTGTHNDKKIDFFAIDILHVKDGKITEDWHLEDNLTLKQQLGLIAEE | soluble |
| GERIDIRISPYLQDLFDAARADGVYPIVASGYRTTEKQQEIMDEKVAEYKAKGYTSAQAKAEAETWVAVPGTSEHQLGLAVDINADGIHSTGNEVYRWLDENSYRFGFIRRYPPDKTEITGVSNEPWHYRYVGIEAATKIYHQGLCLEEYLNTEK | not soluble |
| GERLSEAEVLSLFDLPLPELAAAAHEVRLKKTDPEVVTFLIDRNINYTNVCTVACAFCAFYRTKRQKDAYTLSYEEIARKVEELYQVGGRRILMQGGVNPELPLVWYLDLLRYLKSRFPDLRIDAFSPEEILGLERLTGLRAEAILEKLKEAGLDGLPGAGAEILVDEVRLKAAPARIRTADWYRIVDAAQALGLYTLATMVIGFGEGPKERTAHLLGLRAQQDRALERYENGFAAFALWTLQVEHTRLKGKAPGATAHEYLKTLAVARLALDNFAHFQASWPTLGFKVAQAALYYGADDFGSTMLEENVVSAAGGHGRTHATVRQIVRHIVDAGFKPAER | not soluble |
| GFVEPHVHPLIASIMLPNEIIAPYDWVLPHTVKKGVQDHDSYLKAVTKSVNENANKDEVYFIWGYHQLWHGELNRDILNNISKDKPIAIIHRSFHEIFLNDAAISKLGIKKSDFANNPQVYWEKGHFYEGGWFALVPMMASELLAPKKYLQGLAMMSELVEKNGITTIGEPGFPSSSFDTEYTLLKQEMDTKPPFDIFLIPNGTQLYGMKGSNENALTFMNSLPEKYNTSNIQFLPKQVKLFADGAIYSQLMQMKDGYIDGHKGEWITPLALFQQQLDFYWDRDFKIHTHANGDLGIQEVMGFVSKAQKRTPRKDHRFTLHHMGYFDDTQAQQVADLQIDASVNPYYLWALADKYAEHGLGKERGENLVRMKSLTDRGVHLSFHSDFSMAPMEPLTLAWTAVNRITSQGSKFSQAQRLDMYTAMKAITIGAARVLSQEHKIGSIKKGKTANFTILAENPFKVEPIALKDIDIITTVFRGTLSKPLH | not soluble |
| GGGVMHYTDKAALPADGEAREVAALFDTWNAALATGNPHKVADLYAPDGVLLPTVSNEVRASREQIENYFEMFLTKKPKGVINYRTVRLLDDDSAVDAGVYTFTLTDKNGKKSDVQARYTFVYEKRDGKWLIINHHSSAMPEVDTATATAAVTKAK | soluble |
| GGYSSEQQEDLEAIAPAVVQALQRKKAEEALRLSNIYNRSLIESSLDPLVTIGRDGKITDVNCATEQVTGYPRNDLIKTDFSDYFTEPENARAGYKQVFTDGEVRDYPLEIQHKDGHITPVLYNASVYRDEN | not soluble |
| GHEIKDIREDTMHAEFNALRAQVAINDGNPDEAERLAKLALEELPPGWFYSRIVATSVLGEVLHCKGELTRSLALMQQTEQMARQHDVWHYALWSLIQQSEILFAQGFLQTAWETQEKAFQLINEQHLEQLPMHEFLVRIRAQLLWAWARLDEAEASARSGIEVLSSYQPQQQLQCLAMLIQCSLARGDLDNARSQLNRLENLLGNGKYHSDWISNANKVRVIYWQMTGDKAAAANWLRHTAKPEFANNHFLQGQWRNIARAQILLGEFEPAEIVLEELNENARSLRLMSDLNRNLLLLNQLYWQAGRKSDAQRVLLDALKLANRTGFISHFVIEGEAMAQQLRQLIQLNTLPELEQHRAQRILREINQHHGA | soluble |
| GHHHHHHHHHHSSGHIEGRHNMPVVIKTEGPAWTPLEPKLITRLADTVRTKGLRSPITMAEVEALMSSPLLPHDVTNLMRVILGPAPYALWMDAWGVQLQTVIAAATRDPRHPANGQGRGERTNLDRLKGLADGMVGNPQGQAALLRPGELVAITASALQAFREVARLAEPAGPWADITQGPSESFVDFANRLIKAVEGSDLPPSARAPVIIDCFRQKSQPDIQQLIRAAPSTLTTPGEIIKYVLDRQKIAPLTDQGIAAAM | soluble |
| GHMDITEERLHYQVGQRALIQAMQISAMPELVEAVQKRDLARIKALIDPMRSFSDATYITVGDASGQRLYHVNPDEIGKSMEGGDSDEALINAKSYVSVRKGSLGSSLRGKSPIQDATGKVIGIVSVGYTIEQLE | soluble |
| GHMLVMRPAQAADLPQVQRLAADSPVGVTSLPDDAERLRDKILASEASFAAEVSYNGEESYFFVLEDSASGELVGCSAIVASAGFSEPFYSFRNETFVHASRSLSIHNKIHVLSLCHDLTGNSLLTSFYVQRDLVQSVYAELNSRGRLLFMASHPERFADAVVVEIVGYSDEQGESPFWNAVGRNFFDLNYIEAEKLSGLKSRTFLAELMPHYPIYVPLLPDAAQESMGQVHPRAQITFDILMREGFETDNYIDIFDGGPTLHARTSGIRSIAQSRVVPVKIGEAPKSGRPYLVTNGQLQDFRAVVLDLDWAPGKPVALSVEAAEALGVGEGASVRLVAVGS | soluble |
| GHMNMSQSQEIVLQPRSIVVPGELLAEGEFQIPWSPYILKINSKYYSTVVGLFDVKDTQFEVIPLEGSFYYPKINDIVIGLVEDVEIYGWVVDIKAPYKAYLPASNLLGRSINVGEDLRRYLDVGDYVIARIENFDRSIDPVLSVKGKDLGRVSNGIVIDIMPVKVPRVIGKNKSMYETLTSKSGCSIFVANNGRIWATCPSRFSEEILIEAIRKIENESHIKGLTDRIKQFIEEKLGERNASSGETKTNS | soluble |
| GHMSETYDFLFKFLVIGNAGTGKSCLLHQFIEKKFKDDSNHTIGVEFGSKIINVGGKYVKLQIWDTAGQERFRSVTRSYYRGAAGALLVYDITSRETYNALTNWLTDARMLASQNIVIILCGNKKDLDADREVTFLEASRFAQENELMFLETSALTGENVEEAFVQCARKILNKIESGELDPERMG | soluble |

— the DeepSol protein solubility set
